Our source for the protein stability index values is the supplement of paper PMC10567573.

The chains are these.
B1: NCF4 (parent)
chain: FVKILKDFPEEDDPTNWLRCYYYE
B2: PPP2R2B (parent)
chain: PSNRSFFSEIISSISDVKFSHSGR
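Further: lentivirally expressed fusions sorted by FACS into six bins by GFP to DsRed ratio, PSI derived from sequencing read proportions per bin multiplied by bin number.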

The first data set covers variants of B1. Put plainly: protein stability index of a GFP-peptide fusion (GPS, HEK-293T) (PSI 1-6); higher = more stable. The note with it: c terminus: a fixed tail appended.
Consider FVKILKDFPEEDDPTNWLRCYYNE [Y23N], for which the protein stability index was determined as 1.51. On the same count and under the same terms, the figure for FVKILKDFPEEDDPTNWLRCYYAE [Y23A] is 1.75; for FVKILKDFPEEDDPTNWLRCYYWE [Y23W] it is 1.78.

For FVKILKDFPEEDDPTNWLRCYYLE [Y23L], the protein stability index worked out at 1.39. On the same count and under the same terms, the same measure for FVKILKDFPEEDDPTNWLRCYYCE [Y23C]: 1.49.

Turning to FVKILKDFPEEDDPTNWLRCYYRE [Y23R], the protein stability index amounted to 1.96. On the same count and under the same terms, the figure for FVKILKDFPEEDDPTNWLRCYYSE [Y23S] is 1.83; for FVKILKDFPEEDDPTNWLRCYYFE [Y23F] it is 2.27. Still for that read-out and setting: the figure for FVKILKDFPEEDDPTNWLRCYYME [Y23M] is 2.06; for FVKILKDFPEEDDPTNWLRCYYQE [Y23Q] it is 1.73. Same read-out and setting: the figure for FVKILKDFPEEDDPTNWLRCYYKE [Y23K] is 1.73; for FVKILKDFPEEDDPTNWLRCYYTE [Y23T] it is 1.57; for FVKILKDFPEEDDPTNWLRCYYVE [Y23V] it is 1.3.

Turning to FVKILKDFPEEDDPTNWLRCYYIE [Y23I], the protein stability index was 1.5.

For FVKILKDFPEEDDPTNRLRCYYYE [W17R], the protein stability index amounted to 1.52. On the same count and under the same terms, the figure for FVKILKDFPEEDDPTNTLRCYYYE [W17T] is 1.85; for FVKILKDFPEEDDPTNLLRCYYYE [W17L] it is 1.74.

With FVKILKDFPEEDDPTNYLRCYYYE [W17Y], the protein stability index came to 2.4.

On to FVKILKDFPEEDDPTNKLRCYYYE [W17K], for which the protein stability index was 1.93. The same measure, in the same setting: the figure for FVKILKDFPEEDDPTNILRCYYYE [W17I] is 1.84; for FVKILKDFPEEDDPTNNLRCYYYE [W17N] it is 3.07; for FVKILKDFPEEDDPTNQLRCYYYE [W17Q] it is 1.89. As for FVKILKDFPEEDDPTNELRCYYYE [W17E], the protein stability index came to 1.91. Consider FVKILKDFPEEDDPTNPLRCYYYE [W17P], for which the protein stability index was determined as 1.54. On the same count and under the same terms, the same measure for FVKILKDFPEEDDPTNHLRCYYYE [W17H]: 2.34; for FVKILKDFPEEDDPTNALRCYYYE [W17A]: 1.93. For FVKILKDFPEEDDPTNSLRCYYYE [W17S], the protein stability index is 1.52. Same read-out and setting: the same measure for FVKILKDFPEEDDPTNDLRCYYYE [W17D]: 1.91; for FVKILKDFPEEDDPTNCLRCYYYE [W17C]: 2.55. In the case of FVKILKDFPEEDDPTNVLRCYYYE [W17V], the protein stability index was found to be 1.31. The same measure, in the same setting: the figure for FVKILKDFPEEDDPTNGLRCYYYE [W17G] is 1.79.

Regarding FVKILKDFPEEDDPTNFLRCYYYE [W17F], the protein stability index is 1.59.

With FVKILKDFPEEDDPTNMLRCYYYE [W17M], the protein stability index was determined as 1.85. Same read-out and setting: the same measure for FVKILKDFPEEDDPTNWLGCYYYE [R19G]: 1.09; for FVKILKDFPEEDDPTNWLHCYYYE [R19H]: 3.89; for FVKILKDFPEEDDPTNWLPCYYYE [R19P]: 2.54. The same measure, in the same setting: the same measure for FVKILKDFPEEDDPTNWLWCYYYE [R19W]: 1.78. Same read-out and setting: the same measure for FVKILKDFPEEDDPTNWLKCYYYE [R19K]: 4.32. Take FVKILKDFPEEDDPTNWLCCYYYE [R19C]: the protein stability index amounted to 1.01. The same measure, in the same setting: the same measure for FVKILKDFPEEDDPTNWLNCYYYE [R19N]: 2.83; for FVKILKDFPEEDDPTNWLDCYYYE [R19D]: 2.32; for FVKILKDFPEEDDPTNWLFCYYYE [R19F]: 2.28. Same read-out and setting: the figure for FVKILKDFPEEDDPTNWLYCYYYE [R19Y] is 3.01; for FVKILKDFPEEDDPTNWLLCYYYE [R19L] it is 1.78; for FVKILKDFPEEDDPTNWLTCYYYE [R19T] it is 2.28. On the same count and under the same terms, the figure for FVKILKDFPEEDDPTNWLACYYYE [R19A] is 2.27; for FVKILKDFPEEDDPTNWLQCYYYE [R19Q] it is 1.42. Take FVKILKDFPEEDDPTNWLICYYYE [R19I]: the protein stability index turned out to be 1.84. On the same count and under the same terms, the same measure for FVKILKDFPEEDDPTNWLSCYYYE [R19S]: 1.79; for FVKILKDFPEEDDPTNWLECYYYE [R19E]: 1.56. For the variant FVKILKDFPEEDDPTNWLVCYYYE [R19V], the protein stability index was 1.74. The same measure, in the same setting: the figure for FVKILKDFPEEDDPTNWLMCYYYE [R19M] is 2.31; for FVKILKDFPEEDDPVNWLRCYYYE [T15V] it is 1.9; for FVKILKDFPEEDDPYNWLRCYYYE [T15Y] it is 1.84. On the same count and under the same terms, the same measure for FVKILKDFPEEDDPSNWLRCYYYE [T15S]: 2.14; for FVKILKDFPEEDDPWNWLRCYYYE [T15W]: 1.41; for FVKILKDFPEEDDPTNWLRCYYYC [E24C]: 3.79. Still for that read-out and setting: the figure for FVKILKDFPEEDDPTNWLRCYYYG [E24G] is 1.54; for FVKILKDFPEEDDPTNWLRCYYYD [E24D] it is 1.39.

Consider FVKILKDFPEEDDPTNWLRCYYYQ [E24Q], for which the protein stability index turned out to be 2.5.

In the case of FVKILKDFPEEDDPTNWLRCYYYW [E24W], the protein stability index amounted to 1.6. On the same count and under the same terms, the figure for FVKILKDFPEEDDPTNWLRCYYYT [E24T] is 1.23; for FVKILKDFPEEDDPTNWLRCYYYH [E24H] it is 2.4.

On to FVKILKDFPEEDDPTNWLRCYYYM [E24M], for which the protein stability index is 2.05. With FVKILKDFPEEDDPTNWLRCYYYI [E24I], the protein stability index is 2.39. Same read-out and setting: the figure for FVKILKDFPEEDDPTNWLRCYYYN [E24N] is 1.5; for FVKILKDFPEEDDPTNWLRCYYYF [E24F] it is 2.3; for FVKILKDFPEEDDPTNWLRCYYYL [E24L] it is 2.95. On the same count and under the same terms, the same measure for FVKILKDFPEEDDPTNWLRCYYYV [E24V]: 2.32; for FVKILKDFPEEDDPTNWLRCYYYS [E24S]: 1.98.

FVKILKDFPEEDDPTNWLRCYYYA [E24A]: the protein stability index was 2.33. On the same count and under the same terms, the same measure for FVKILKDFPEEDDPTNWLRCYYYP [E24P]: 2.12; for FVKILKDFPEEDDPTNWLRCYYYK [E24K]: 1.99. On the same count and under the same terms, the same measure for FVKILKDFPEEDDPTNWLRCYYYR [E24R]: 1.51; for FVKILKDFPEEDDPTNWLRCYYYY [E24Y]: 1.47.

In another data set the parent is B2. The data set is described as above. The following applies: c terminus: a fixed tail appended.
Regarding PSNRSFFSEIISSISDVKFSHSAR [G23A], the protein stability index came out at 2.31.

For PSNRSFFSEIISSISDVKFSHSKR [G23K], the protein stability index came to 2.49. Same read-out and setting: the same measure for PSNRSFFSEIISSISDVKFSHSCR [G23C]: 2.36; for PYNRSFFSEIISSISDVKFSHSGR [S2Y]: 2.64; for PSNRSFFSEIISSISDVKFSMSGR [H21M]: 2.41. On the same count and under the same terms, the same measure for PSNRSFFSEIISSYSDVKFSHSGR [I14Y]: 2.19; for PSNRSYFSEIISSISDVKFSHSGR [F6Y]: 2.52; for PSNRSFFSEIISSISDVKFSHSGA [R24A]: 2.36.

Turning to PSNRSFFSEIESSISDVKFSHSGR [I11E], the protein stability index was determined as 3.59. With PSNRSFFSEIISSIYDVKFSHSGR [S15Y], the protein stability index is 2.05. Take PSGRSFFSEIISSISDVKFSHSGR [N3G]: the protein stability index is 2.19. Consider PSNRSFFSEIISSISDVKFVHSGR [S20V], for which the protein stability index came out at 2.33.

In the case of PSNRSFFTEIISSISDVKFSHSGR [S8T], the protein stability index turned out to be 2.62. For PSNRSFFSEIIASISDVKFSHSGR [S12A], the protein stability index worked out at 2.23. With HSNRSFFSEIISSISDVKFSHSGR [P1H], the protein stability index was 1.8. VSNRSFFSEIISSISDVKFSHSGR [P1V]: the protein stability index was found to be 1.72.

For the variant PSNRSFFSEIISSISDVKWSHSGR [F19W], the protein stability index is 1.97. Same read-out and setting: the same measure for PSNRSFFSEIISSISDVKGSHSGR [F19G]: 2.86; for PSNRSFFSEIISSISDVAFSHSGR [K18A]: 2.15.
